IC50 data for 30 molecules are collected here from patent US20240116985A1, “STAPLED PEPTIDES AND METHODS THEREOF” (priority 2020, published 2024).

Experiment [1] concerns the target full-length beta-Catenin (Uniprot ID P35222) (Homo sapiens (Human)) (UniProt P35222). In words: fluorescence polarization competition; full-length beta-catenin, 5FAM-TCF4 10-53 probe as competitor. In general terms: Fluorescence polarisation rises when a labelled molecule tumbles more slowly, as on binding a larger partner.
Target sequence in this assay (P35222 whole entry, one chain of several): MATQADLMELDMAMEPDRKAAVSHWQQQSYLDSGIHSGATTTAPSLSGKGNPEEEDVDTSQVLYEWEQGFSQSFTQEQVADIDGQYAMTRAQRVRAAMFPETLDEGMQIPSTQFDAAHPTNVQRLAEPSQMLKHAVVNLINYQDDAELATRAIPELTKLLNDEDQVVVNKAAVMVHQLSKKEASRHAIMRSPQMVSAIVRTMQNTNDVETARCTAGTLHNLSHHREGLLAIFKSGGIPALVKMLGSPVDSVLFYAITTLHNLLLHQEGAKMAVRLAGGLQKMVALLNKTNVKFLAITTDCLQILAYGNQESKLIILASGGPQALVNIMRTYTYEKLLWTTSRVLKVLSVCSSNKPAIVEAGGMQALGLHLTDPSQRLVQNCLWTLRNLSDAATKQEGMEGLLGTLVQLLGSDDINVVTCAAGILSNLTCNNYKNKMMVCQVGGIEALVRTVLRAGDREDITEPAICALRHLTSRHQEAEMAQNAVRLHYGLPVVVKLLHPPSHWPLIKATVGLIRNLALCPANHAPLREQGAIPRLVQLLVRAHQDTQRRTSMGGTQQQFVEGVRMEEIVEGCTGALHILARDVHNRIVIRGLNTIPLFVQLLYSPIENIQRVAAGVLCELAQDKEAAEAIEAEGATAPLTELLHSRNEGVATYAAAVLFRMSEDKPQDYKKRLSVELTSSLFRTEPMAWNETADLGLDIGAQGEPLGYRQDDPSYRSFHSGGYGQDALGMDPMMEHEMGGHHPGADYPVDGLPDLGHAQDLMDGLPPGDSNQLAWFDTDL
For experiment [2], the target named is B-cat-Halo (beta-catenin HaloTag NanoBRET construct expressed in HEK293 cells) (UniProt P35222). Put plainly: NanoBRET in HEK293 cells, Bcat-Halo / TCF4-Luc (competitor TCF4-Luc); absolute IC50. Background: Bioluminescence resonance energy transfer reports proximity on the nanometre scale.
For experiment [3], the target named is full-length beta-Catenin (Uniprot ID P35222) (Homo sapiens (Human)) (UniProt P35222). In words: fluorescence polarization competition; full-length beta-catenin, competitor 5FAM-TCF4(10-53) probe.
Target sequence in this assay (P35222 2-781 limits assumed): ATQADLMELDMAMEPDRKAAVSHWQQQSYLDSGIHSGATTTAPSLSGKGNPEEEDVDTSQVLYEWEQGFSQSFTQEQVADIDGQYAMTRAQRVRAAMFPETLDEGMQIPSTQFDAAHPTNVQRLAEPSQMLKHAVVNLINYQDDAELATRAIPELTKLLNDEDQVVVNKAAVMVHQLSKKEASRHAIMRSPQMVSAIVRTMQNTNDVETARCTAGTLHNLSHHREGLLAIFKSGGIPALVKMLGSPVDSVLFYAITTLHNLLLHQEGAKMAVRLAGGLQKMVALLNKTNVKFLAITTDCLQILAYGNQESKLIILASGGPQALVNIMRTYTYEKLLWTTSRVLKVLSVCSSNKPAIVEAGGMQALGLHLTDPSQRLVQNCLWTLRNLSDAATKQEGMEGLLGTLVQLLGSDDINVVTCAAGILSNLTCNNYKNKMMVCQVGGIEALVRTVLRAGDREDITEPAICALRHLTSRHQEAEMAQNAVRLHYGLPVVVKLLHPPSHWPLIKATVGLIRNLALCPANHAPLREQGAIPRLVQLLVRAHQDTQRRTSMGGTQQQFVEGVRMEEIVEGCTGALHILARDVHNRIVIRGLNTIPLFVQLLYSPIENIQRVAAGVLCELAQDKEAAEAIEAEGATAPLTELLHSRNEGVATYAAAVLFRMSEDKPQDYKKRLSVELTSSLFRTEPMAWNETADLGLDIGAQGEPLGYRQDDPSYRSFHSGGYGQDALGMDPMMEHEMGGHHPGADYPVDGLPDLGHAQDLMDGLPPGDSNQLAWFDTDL
The target of experiment [4] is Bcat-Halo (UniProt P35222). Put plainly: NanoBRET Abs IC50, HEK293 cells, Bcat-Halo / TCF4-Luc.
For experiment [5], the target named is full-length beta-Catenin (Uniprot ID P35222) (Homo sapiens (Human)) (UniProt P35222). Put plainly: fluorescence polarization competition against 5FAM-TCF4(10-53), full-length beta-catenin.
Target sequence in this assay (P35222 whole entry, one chain of several): as the sequence (P35222 whole entry, one chain of several) above

Starred links: 1 amine or outer side, 2 acyl side, 3 side chain; linkers in the order of their positions; H or OH if unused. Positions of bridges follow the written chain, without caps; N, C: chain ends. Non-standard residues stand in square brackets, D forms with d. Primed or numbered codes have the meaning given here. *: point of attachment. PyrS2″ = (S)-3-amino-1-((pent-4-en-1-yloxy)carbonyl)pyrrolidine-3-carboxylic acid (stapling residue), C=CCCCOC(=O)N1CC[C@@](N[*:1])(C(=O)[*:2])C1; B5(4) = 2,2-bis(4-pentenyl)glycine = 2-amino-2-(pent-4-en-1-yl)hept-6-enoic acid (stitching residue), C=CCCCC(CCCC=C)(N[*:1])C(=O)[*:2]; B5(5) = 2,2-bis(4-pentenyl)glycine, 2-amino-2-(pent-4-en-1-yl)hept-6-enoic acid (stitching residue), C=CCCCC(CCCC=C)(N[*:1])C(=O)[*:2]; PyrS2 = (S)-3-amino-1-((pent-4-en-1-yloxy)carbonyl)pyrrolidine-3-carboxylic acid, C=CCCCOC(=O)N1CC[C@@](N[*:1])(C(=O)[*:2])C1; (Me2diaminobutane)GlnR = N5-methyl-N5-(4-(methylamino)butyl)-L-glutamine, CN(CCCCN(C)[*:3])C(=O)CC[C@H](N[*:1])C(=O)[*:2]; SPip2 = 4-amino-1-((pent-4-en-1-yloxy)carbonyl)piperidine-4-carboxylic acid, C=CCCCOC(=O)N1CCC(N[*:1])(C(=O)[*:2])CC1; SPip1 = 4-amino-1-((but-3-en-1-yloxy)carbonyl)piperidine-4-carboxylic acid, C=CCCOC(=O)N1CCC(N[*:1])(C(=O)[*:2])CC1; B5(25) = 2-amino-2-(pent-4-en-1-yl)hept-6-enoic acid (stitching residue), C=CCCCC(CCCC=C)(N[*:1])C(=O)[*:2]; 5IndA = (S)-2-amino-3-(2,3-dihydro-1H-inden-5-yl)propanoic acid, O=C([C@H](Cc1ccc2c(c1)CCC2)N[*:1])[*:2]; (NMe2)GlnR″ = [NMe2]GlnR: N5,N5-dimethyl-L-glutamine, CN(C)C(=O)CC[C@H](N[*:1])C(=O)[*:2]; B5 = 2-amino-2-(pent-4-en-1-yl)hept-6-enoic acid, C=CCCCC(CCCC=C)(N[*:1])C(=O)[*:2]; (NMe2)GlnR = N5,N5-dimethyl-L-glutamine, CN(C)C(=O)CC[C@H](N[*:1])C(=O)[*:2]; Phe(3-COOH) = N[C@@H](Cc1cccc(C(=O)O)c1)C(=O)O; Phe(2-CF3) = N[C@@H](Cc1ccccc1C(F)(F)F)C(=O)O; Phe(3,4-Me2) = Cc1ccc(C[C@H](N)C(=O)O)cc1C; Phe(3-Br) = N[C@@H](Cc1cccc(Br)c1)C(=O)O; Phe(2-Cl) = N[C@@H](Cc1ccccc1Cl)C(=O)O; 2Nal = N[C@@H](Cc1ccc2ccccc2c1)C(=O)O; Bta = N[C@@H](Cc1csc2ccccc12)C(=O)O; Isobutyloxycarbonyl = CC(C)COC(=O)*; αAllylPro = C=CC[C@@]1(C(=O)O)CCCN1; tBuAla = CC(C)(C)C[C@H](N)C(=O)O; 3Thi = N[C@@H](Cc1ccsc1)C(=O)O; R5 = C=CCCC[C@@](C)(N)C(=O)O; 2F3MeF″ = Phe derivative; Propioloyl = C#CC(=O)*; Aib = CC(C)(N)C(=O)O

B-cat-Halo (beta-catenin HaloTag NanoBRET construct expressed in HEK293 cells), sequence (P35222 whole entry): as the sequence (P35222 whole entry, one chain of several) above
Bcat-Halo, sequence (P35222 whole entry): as the sequence (P35222 whole entry, one chain of several) above

B1: I-2575 (peptide)
peptide: Ac-P[R5]ED[tBuAla][B5(25)]D[Phe(3-COOH)]AAFL[PyrS2″][Phe(2-CF3)][Bta]Q-NH2
modifications: staple 6-13, 2-6 (inferred); not fully specified; printed as Ac-Pro-R5-Glu-Asp-Npg-B5-Asp-3COOHF-Ala-Ala-Phe-Leu-PyrS2-2F3MeF-BztA-Gln-NH2
Usually IC50 stands for the concentration that inhibits the measured activity by half. A lower IC50 goes with greater potency in that assay. Turning to B1, the IC50 in experiment [1] is 8160 nM.
In the case of Ac-[αAllylPro]D[tBuAla][B5(5)]NT[Aib]AFR[PyrS2][3Thi][Bta]Q-NH2 (staple 1-4, 4-11) [I-2407], the figures for the IC50 in experiment [2] and in experiment [3] were > 20000 nM and 138 nM, respectively.
Isobutyloxycarbonyl-[αAllylPro]D[tBuAla][B5(4)]D[Phe(3-COOH)]AAFL[PyrS2″][Phe(2-Cl)][Bta]A-NH2 (staple 1-4, 4-11) [I-2305]: the IC50 was > 20000 nM in experiment [4] and 65 nM in experiment [5].
In the case of Ac-[αAllylPro]D[tBuAla][B5(5)]NT[Aib]AFN[PyrS2″][3Thi][Bta]H-NH2 (staple 1-4, 4-11) [I-2414], the half-inhibitory concentration (IC50) in experiment [2] is > 20000 nM; in experiment [3] it was 7 nM.
Taken in the same sequence, the figures for Ac-[αAllylPro]D[tBuAla][B5(5)]NT[Aib]AFN[PyrS2″][3Thi][Bta]T-NH2 (staple 1-4, 4-11) [I-2416] were > 20000 nM and 133 nM.

B2: I-2584 (peptide)
peptide: Ac-[αAllylPro]D[tBuAla][B5]D[Phe(3-COOH)]QAFL[SPip1][Phe(2-CF3)][Bta]A-NH2
modifications: staple 1-4, 4-11; not fully specified; printed as Ac-PL3-Asp-Npg-B5-Asp-3COOHF-Gln-Ala-Phe-Leu-SPip1-2F3MeF-BztA-Ala-NH2
The molecule B2 yielded a 50% inhibitory concentration (IC50) in experiment [1] of 1840 nM.
With Ac-[αAllylPro]D[tBuAla][B5(5)]NT[Aib]AFT[PyrS2][3Thi][Bta]Q-NH2 (staple 1-4, 4-11) [I-2409], the IC50 in experiment [2] worked out at 50000 nM; in experiment [3], 397 nM.
Take Ac-[αAllylPro]D[tBuAla][B5(4)]D[Phe(3-COOH)][(NMe2)GlnR″]AFL[PyrS2″][2F3MeF″][Bta][(NMe2)GlnR″]-NH2 (staple 1-4, 4-11) [I-2300]: the IC50 was 1200 nM in experiment [4] and 6 nM in experiment [5].
Regarding Ac-[αAllylPro]D[tBuAla][B5(5)]D[Phe(3-COOH)]AAFL[PyrS2][Phe(2-CF3)][Bta]QL[dT]-NH2 (staple 1-4, 4-11) [I-2397], the IC50 in experiment [2] amounted to 7800 nM; in experiment [3], 53 nM.
Take propiolyl-[αAllylPro]D[tBuAla][B5(5)]DDAAFQ[PyrS2][3Thi][Bta]H-NH2 (staple 1-4, 4-11) [I-2402]: the IC50 is > 20000 nM in experiment [2] and 16 nM in experiment [3].
For Ac-[αAllylPro]D[tBuAla][B5(4)]D[Phe(3-COOH)]AAFL[PyrS2″][3Thi][Phe(3-Br)]Q-NH2 (staple 1-4, 4-11) [I-2307], the half-maximal inhibitory concentration (IC50) was determined as 8900 nM in experiment [4] and 16 nM in experiment [5].
For Ac-[αAllylPro]D[tBuAla][B5(5)]NT[Aib]AFN[PyrS2″][3Thi][Bta]N-NH2 (staple 1-4, 4-11) [I-2415], the figures for the IC50 in experiment [2] and in experiment [3] were > 20000 nM and 147 nM, respectively.
As to Ac-[αAllylPro]D[tBuAla][B5(4)]D[Phe(3-COOH)][(NMe2)GlnR]AFV[PyrS2″][3Thi][Bta]A-NH2 (staple 1-4, 4-11) [I-2303], the IC50 stood at 1200 nM in experiment [4] and 5 nM in experiment [5].
Ac-[αAllylPro]D[tBuAla][B5(5)]NT[Aib]AFH[PyrS2″][3Thi][Bta]Q-NH2 (staple 1-4, 4-11) [I-2410]: the 50% inhibitory concentration (IC50) in experiment [2] is > 20000 nM; in experiment [3], 304 nM.

B3: I-2585 (peptide)
peptide: Ac-[αAllylPro]D[tBuAla][B5]D[Phe(3-COOH)]QAFL[SPip2][Phe(2-CF3)][Bta]A-NH2
modifications: staple 1-4, 4-11; not fully specified; printed as Ac-PL3-Asp-Npg-B5-Asp-3COOHF-Gln-Ala-Phe-Leu-SPip2-2F3MeF-BztA-Ala-NH2; also: earlier-eluting staple isomer composition
Molecule B3 had a half-inhibitory concentration (IC50) in experiment [1] of 452 nM.
On to Ac-[αAllylPro]D[tBuAla][B5(4)]D[Phe(3-COOH)]QAFV[PyrS2″][3Thi][SbMe2NapA]A-NH2 (staple 1-4, 4-11) [I-2314], for which the IC50 in experiment [4] is > 20000 nM; in experiment [5] it was 48 nM.
Taken in the same sequence, the figures for Ac-[αAllylPro]D[tBuAla][B5(4)]D[Phe(3-COOH)][(NHEt)GlnR]AFL[PyrS2″][2F3MeF″][Bta][(NHEt)GlnR]-NH2 (staple 1-4, 4-11) [I-2299] were 5200 nM and 7 nM.
For Ac-[αAllylPro]D[tBuAla][B5(4)]D[Phe(3-COOH)]QAFV[PyrS2][3Thi][5IndA]A-NH2 (staple 1-4, 4-11) [I-2296], in that order: 5100 nM and 6 nM.
In the case of Ac-[αAllylPro]D[tBuAla][B5(4)]D[Phe(3-COOH)][(Me2diaminobutane)GlnR]AFV[PyrS2″][3Thi][Bta]A-NH2 (staple 1-4, 4-11) [I-2301], the half-maximal inhibitory concentration (IC50) in experiment [4] is > 20000 nM; in experiment [5], 5 nM.
On to Ac-[αAllylPro]D[tBuAla][B5(5)]D[Phe(3-COOH)]AAFL[PyrS2][Phe(2-CF3)][Bta]QFA-NH2 (staple 1-4, 4-11) [I-2400], for which the results for the IC50 in experiment [2] and in experiment [3] were 2500 nM and 142 nM, respectively.
With Ac-[αAllylPro]D[tBuAla][B5(4)]D[Phe(3-COOH)]QAFL[PyrS2″][Phe(2-CF3)][5IndA]A-NH2 (staple 1-4, 4-11) [I-2298], the results for the 50% inhibitory concentration (IC50) in experiment [4] and in experiment [5] were 4600 nM and 8 nM, respectively.
For Ac-[αAllylPro]D[tBuAla][B5(4)]D[Phe(3-COOH)][(NHEt)GlnR]AFV[PyrS2″][3Thi][Bta]A-NH2 (staple 1-4, 4-11) [I-2302], in that order: 2500 nM and 5 nM.
On to Ac-[αAllylPro]D[tBuAla][B5(5)]D[Phe(3-COOH)]AAFL[PyrS2][Phe(2-CF3)][Bta]QVA-NH2 (staple 1-4, 4-11) [I-2401], for which the half-inhibitory concentration (IC50) is 4400 nM in experiment [2] and 37 nM in experiment [3].
Ac-[αAllylPro]D[tBuAla][B5(5)]D[Phe(3-COOH)]AAFL[PyrS2][Phe(2-CF3)][Bta]QAA-NH2 (staple 1-4, 4-11) [I-2399]: the figures for the half-inhibitory concentration (IC50) in experiment [2] and in experiment [3] were 2800 nM and 17 nM, respectively.
For Ac-[αAllylPro]D[tBuAla][B5(5)]D[Phe(3-COOH)]AAFL[PyrS2][Phe(2-CF3)][Bta]QL[dL]-NH2 (staple 1-4, 4-11) [I-2396], the concentration for half-maximal inhibition (IC50) was determined as 8300 nM in experiment [2] and 187 nM in experiment [3].
For Ac-[αAllylPro]D[tBuAla][B5(4)]D[Phe(3-COOH)]QAFV[PyrS2″][3Thi][2Nal]A-NH2 (staple 1-4, 4-11) [I-2310], the concentration for half-maximal inhibition (IC50) in experiment [4] amounted to 8900 nM; in experiment [5], 18 nM.
Taken in the same sequence, the figures for Ac-[αAllylPro]D[tBuAla][B5(4)]D[Phe(3-COOH)]QAFV[PyrS2″][3Thi][RbMe2NapA]A-NH2 (staple 1-4, 4-11) [I-2312] were 5200 nM and 5 nM.
As for Ac-[R5]AD[tBuAla][B5(25)]D[Phe(3-COOH)]AAFL[PyrS2″][Phe(2-CF3)][Bta]Q-NH2 (staple 1-5, 5-12 (inferred); also: staple -CH=CH- reduced to -CH2-CH2-) [I-2574], the IC50 in experiment [1] was found to be 2960 nM.
For the molecule Ac-[αAllylPro]D[tBuAla][B5(4)]D[Phe(3-COOH)]QAFL[PyrS2][Phe(2-CF3)][Phe(3,4-Me2)]A-NH2 (staple 1-4, 4-11) [I-2294], the IC50 in experiment [4] is 4600 nM; in experiment [5], 16 nM.
Take Propioloyl-[αAllylPro]D[tBuAla][B5(5)]D[Phe(3-COOH)]AAFL[PyrS2″][Phe(2-Cl)][Bta]A-NH2 (staple 1-4, 4-11) [I-2403]: the values for the 50% inhibitory concentration (IC50) in experiment [2] and in experiment [3] were > 20000 nM and 12 nM, respectively.
